Patent publication US20260007756A1, “COMPOUND AND USE THEREOF” (COHERENT BIOPHARMA (SUZHOU) LIMITED, priority 2022, published 2026)
In brackets after ≈: the same amount, converted by molar mass. Read-outs that look alike come from different tables or passages of the source.

How the values were obtained:
VCaP = assay: Expansion inhibition of tumor cells (Example 9, CellTiter-Glo); type: cell-based, human; conditions: 72 h
Text: (§1) Information on cell lines: LNCaP (human prostate cancer cell) and VCaP (human prostate cancer cell)
(§2) Negative and blank controls were set.

LNCaP = assay: as above; type: cell-based, human; conditions: 72 h
Text: as §1, §2

[1] = test system: human prostate cancer 22Rv-1 cell subcutaneous xenograft; assay: Pharmacodynamic assessment, 22Rv-1 xenograft model (Example 17); type: in vivo, BALB/c nude male mouse; conditions: for Safety: 2.87 / 2.88 mg/kg i.v biw×3w
Description: Objective: Pre-clinical anti-tumor effect assessment of CR202 series of compounds in BALB/c nude male mouse model with human prostate cancer 22Rv-1 cell subcutaneous xenograft.
Procedures: 22Rv-1 (CL-00458) cells were cultured in a PRMI1640 medium containing 10% fetal bovine serum. The 22Rv-1 cells in the exponential phase were collected and resuspended in PBS to an appropriate concentration for subcutaneous tumor grafting in nude mice. The mice were subcutaneously grafted at the right back with 1×10^7 22Rv-1 cells, which were resuspended in a mixture of PBS and matrigel (1:1, 0.1 mL/mouse). The growth of the tumors was observed periodically. When the mean volume of the tumors reached 100-150 mm^3, the mice were randomized according to the tumor size. After the administration, the routine monitoring included the effect on tumor growth and the effect of treatment on the normal behavior of the animals, specifically the activity, food and water intake, weight gain or loss, the eyes, the hair, and other abnormal conditions. Clinical symptoms observed during the study were recorded in the raw data. After the administration was started, the body weight and tumor size of the mice were measured periodically. The tumor volume was calculated using the following formula: V=1/2×(a×b^2), where a and b denote the long diameter and short diameter of the tumor, respectively.

Plasma stability study 2 = type: in vitro ADME; conditions: mouse plasma, 37° C.; for remaining at 0.5 h, 100 μg/mL / remaining at 1 h, 100 μg/mL / remaining at 2 h, 100 μg/mL / remaining at 4 h, 100 μg/mL / remaining at 6 h, 100 μg/mL: read-out: Residual rate of principal component
Description: • 1) The conjugate compounds were prepared into 1 mg/mL stock solutions with 0.1% TFA-acetonitrile water (1:1); • 2) 10 μL of 1 mg/mL compound stock solution was added into 90 μL of fresh plasma, and the mixture was well mixed by gentle shaking, and transferred to a thermostatic incubator at 37° C. for 0 h, 0.5 h, 1 h, 2 h, 4 h, 6 h, or 24 h of incubation; • 3) at the time points, samples were taken out and 300 μL of methanol solution (containing 10 ng/ml of terfenadine) was added for protein precipitation; • 4) the mixture was centrifuged (13 min, 4° C., 12000 rpm) and the supernatant was collected, and preserved in a −80° C. refrigerator; after collection, the samples were loaded for LC-MS analysis.

cathepsin B-human liver = cathepsin B-human liver (Homo sapiens, UniProt P07858); conditions: 37° C.
Description: • 1) The conjugate compounds were prepared into 500 μg/mL stock solutions with 0.1% TFA-acetonitrile water (1:1); • 2) 60 μL of 500 μg/mL compound stock solution was added to 536 μL of 50 mM NaOAc (containing 1 mM EDTA+10 mM Cys), before 4 μL of cathepsin B (CB enzyme) was added, and the mixture was well mixed by gentle shaking. • 3) The cleavage reaction system in step 2) was transferred to a thermostatic incubator at 37° C. for 0 h, 1 h, 2 h, 4 h, or 24 h of incubation. Samples were taken and loaded at various time points for LC-MS analysis.

C4-2 = conditions: C4-2, 72 h, CellTiter-Glo
Description: Cells were prepared in advance, trypsinized, collected, counted, diluted to 1.5×10^4 cells/mL in a complete cell culture medium, and plated in 96-well plates. The diluted cell suspension was added at 100 μL/well, and negative and blank control wells were set on each plate. The 96-well plates with the added cells were incubated overnight at 37° C. in a 5% CO2 incubator.
Samples were serially diluted with medium (serially 3-fold diluted from 10 μM) to 9 concentrations. The medium in the plates was discarded, and the drug solutions were added at 100 μL per well to a 96-well plate in triplicate. Negative and blank controls were set. The plates were incubated at 37° C. for 72 h in a 5% CO2 incubator.
The CellTiter-Glo buffer was thawed and warmed to room temperature, and the CellTiter-Glo substrate was warmed to room temperature. The CellTiter-Glo buffer was added to the flask containing CellTiter-Glo substrate to dissolve the substrate, thereby preparing a CellTiter-Glo working solution, which was then vortexed slowly to complete dissolution. The cell culture plates were equilibrated at room temperature for 30 min, before the CellTiter-Glo working solution was added at 50 μL/well (about half the volume of cell culture medium in each well). The plate was covered by aluminum foil to keep out of light. The culture plate was shaken on an orbital shaker for 2 min to induce cell lysis. The culture plate was left to stand at room temperature for 10 min to stabilize the luminescence signals. The luminescence signal was detected on a microplate reader (Molecular Devices SpectraMax iD5).
Four-parameter curves were fitted using GraphPad Prism 8.0.2 to give IC50 values.

Solubility study in PBS = type: physicochemical; conditions: aqueous buffer, thermodynamic from solid; PBS (pH 7.2 to 7.4); read-out: Solubility, concentration
Description: The mixture was vortexed for 2 min until the solid was dissolved. The solubility was calculated as: C=m/V, C: concentration, m: sample weight, V: PBS total volume.

22RV1 = type: cell-based, human; conditions: 22RV1, 72 h, CellTiter-Glo
Text: as §2

MDA-MB-231 = type: cell-based, human; conditions: MDA-MB-231, 72 h, CellTiter-Glo
Text: as §2

sulfatase [2] = assay: in vitro; conditions: isolated sulfatase, pH 7.4
Description: (§3) • 1) The compounds were formulated into 500 μg/mL stock solutions with PBS (pH 7.4); • 2) 60 μL of 500 μg/mL compound stock solution was added to 420 μL PBS (pH 7.4), before 60 μL of 0.2 U/mL plasmin (or 60 μL of 0.5 U/mL sulfatase) was added, and the mixture was well mixed by gentle shaking; • 3) The cleavage reaction system in step 2) was transferred to a thermostatic incubator at 37° C. for 0 h, 1 h, 2 h, 4 h, or 24 h of incubation. Samples were taken and loaded at various time points for LC-MS analysis.

sulfatase [3] = conditions: PBS pH 7.4, 37° C.
Description: as §3

[4] = 2.88 mg/kg i.v BIW×3, day 29 after grouping

Row | SMILES | CR20274 release rate (actual release/theoretical release) (Plasma stability study 2; 0 h) [%] | Residual rate of principal component (Plasma stability study 2; 0 h) [%] | CR20274 release rate (actual release/theoretical release) (Plasma stability study 2; 0.5 h) [%] | remaining at 0.5 h, 100 μg/mL (Plasma stability study 2; 0.5 h) [%] | CR20274 release rate (actual release/theoretical release) (Plasma stability study 2; 1 h) [%] | remaining at 1 h, 100 μg/mL (Plasma stability study 2; 1 h) [%] | CR20274 release rate (actual release/theoretical release) (Plasma stability study 2; 2 h) [%] | remaining at 2 h, 100 μg/mL (Plasma stability study 2; 2 h) [%] | CR20274 release rate (actual release/theoretical release) (Plasma stability study 2; 4 h) [%] | remaining at 4 h, 100 μg/mL (Plasma stability study 2; 4 h) [%] | CR20274 release rate (actual release/theoretical release) (Plasma stability study 2; 6 h) [%] | remaining at 6 h, 100 μg/mL (Plasma stability study 2; 6 h) [%] | CR20274 release rate (actual release/theoretical release) (Plasma stability study 2; 24 h) [%] | Residual rate of principal component (Plasma stability study 2; 24 h) [%] | IC50 (C4-2) [nM] | IC50 (22RV1) [nM] | IC50 (MDA-MB-231) [nM] | also measured
1 | Cc1ncsc1-c1ccc(CNC(=O)[C@@H]2C[C@@H](OC(=O)OCc3ccc(NC(=O)[C@H](CCCNC(N)=O)NC(=O)[C@@H](NC(=O)COCCOCCn4cc(C[C@H](NC(=O)[C@H](CCCCN)NC(=O)[C@H](CC(=O)O)NC(=O)[C@H](CC(=O)O)NC(=O)Cc5ccc(CNC(=O)NCCCC[C@H](NC(=O)N[C@@H](CCC(=O)O)C(=O)O)C(=O)O)cc5)C(=O)N[C@@H](CCCCNC(=O)CC[C@H](NC(=O)c5ccc(NCc6cnc7[nH]c(N)nc(=O)c7n6)cc5)C(=O)O)C(N)=O)nn4)C(C)C)cc3)CN2C(=O)[C@@H](NC(=O)CCCCCCCCCCNC(=O)c2cc3c(cc2CS(C)(=O)=O)-c2cn(C)c(=O)c4[nH]cc(c24)CN3c2ncc(F)cc2F)C(C)(C)C)cc1 [CR202W8] | – | – | – | – | – | – | – | – | – | – | – | – | – | – | – | – | – | IC50 (VCaP): 2.7 nM; IC50 (LNCaP): 5.3 nM
2 | CCCOCCOCCOCCO[Si](Oc1ccc(COC(=O)N(CCOCCC#Cc2cccc3c2CN(C2CCC(=O)NC2=O)C3=O)[C@H]2CC[C@@H](n3cc(-c4ccc(Cc5ncc6c(n5)N(C5CCCC5)[C@H](CC)C(=O)N6C)c(OC)c4)nn3)CC2)cc1)(C(C)C)C(C)C (some centres unmarked) [CR202HT] | – | – | – | – | – | – | – | – | – | – | – | – | – | – | – | – | – | Mean tumor volume [1, 4]: 690.37 mm^3; TGI [1, 4]: 58.19%; Safety [1]: good safety
3 | CC[C@@H]1C(=O)N(C)c2cnc(Nc3ccc(-c4cn([C@H]5CC[C@@H](N(CCOCCC#Cc6cccc7c6CN(C6CCC(=O)NC6=O)C7=O)C(=O)OCc6ccc(NC(=O)[C@H](CCCNC(N)=O)NC(=O)[C@@H](NC(=O)COCCOCCn7cc(C[C@H](NC(=O)[C@H](CCCCN)NC(=O)[C@H](CC(=O)O)NC(=O)[C@H](CC(=O)O)NC(=O)Cc8ccc(CNC(=O)NCCCC[C@H](NC(=O)N[C@@H](CCC(=O)O)C(=O)O)C(=O)O)cc8)C(=O)N[C@@H](CCCCNC(=O)CC[C@H](NC(=O)c8ccc(NCc9cnc%10[nH]c(N)nc(=O)c%10n9)cc8)C(=O)O)C(N)=O)nn7)C(C)C)cc6)CC5)nn4)cc3OC)nc2N1C1CCCC1 (some centres unmarked) [CR202V5] | 0.02 | 94.75 | 0.17 | 101 | 0.25 | 94.9 | 0.37 | 94.7 | 0.94 | 90.6 | 0.97 | 80.4 | 3.92 | −1.03 | 144 | 779 | 412 | CR20274 release rate of compounds after cleavage (cathepsin B-human liver; 0 h): 0%; Principal component residue of compounds after cleavage (cathepsin B-human liver; 0 h): 100.00%; CR20274 release rate of compounds after cleavage (cathepsin B-human liver; 1 h): 100%; Principal component residue of compounds after cleavage (cathepsin B-human liver; 1 h): 2.37%; CR20274 release rate of compounds after cleavage (cathepsin B-human liver; 2 h): 100%; Principal component residue of compounds after cleavage (cathepsin B-human liver; 2 h): 0%; CR20274 release rate of compounds after cleavage (cathepsin B-human liver; 4 h): 100%; Principal component residue of compounds after cleavage (cathepsin B-human liver; 4 h): 0%; CR20274 release rate of compounds after cleavage (cathepsin B-human liver; 24 h): 100%; Principal component residue of compounds after cleavage (cathepsin B-human liver; 24 h): 0%; solubility (Solubility study in PBS): 2800 µg/mL (≈ 941 µM)
4 | CC[C@@H]1C(=O)N(C)c2cnc(Nc3ccc(-c4cn([C@H]5CC[C@@H](N(CCOCCC#Cc6cccc7c6CN(C6CCC(=O)NC6=O)C7=O)C(=O)OCc6ccc(OP(=O)(O)O)c(C(=O)NCCOCCOCCOCCn7cc(C[C@H](NC(=O)[C@H](CCCCN)NC(=O)[C@H](CC(=O)O)NC(=O)[C@H](CC(=O)O)NC(=O)Cc8ccc(CNC(=O)NCCCC[C@H](NC(=O)N[C@@H](CCC(=O)O)C(=O)O)C(=O)O)cc8)C(=O)N[C@@H](CCCCNC(=O)CC[C@H](NC(=O)c8ccc(NCc9cnc%10[nH]c(N)nc(=O)c%10n9)cc8)C(=O)O)C(N)=O)nn7)c6)CC5)nn4)cc3OC)nc2N1C1CCCC1 (some centres unmarked) [CR202LB] | – | – | – | – | – | – | – | – | – | – | – | – | – | – | – | – | – | Safety [1]: good safety
5 | Cc1ncsc1-c1ccc(C(C)NC(=O)C2CC(O)CN2C(=O)C(NC(=O)COCCCOCCNC(=O)CC2N=C(c3ccc(Cl)cc3)c3c(sc(C)c3C)-n3c(C)nnc32)C(C)(C)C)cc1 (centres unmarked) [CR202ES, ARV-771] | – | – | – | – | – | – | – | – | – | – | – | – | – | – | – | – | – | IC50 (VCaP; Homo sapiens): 10.9 nM; IC50 (LNCaP; Homo sapiens): 8.7 nM
6 | CC[C@@H]1C(=O)N(C)c2cnc(Nc3ccc(-c4cn([C@H]5CC[C@@H](N(CCOCCC#Cc6cccc7c6CN(C6CCC(=O)NC6=O)C7=O)C(=O)OCc6ccc(NC(=O)[C@H](CCCNC(N)=O)NC(=O)[C@@H](NC(=O)[C@H](CCC(=O)O)NC(=O)COCCOCCn7cc(C[C@H](NC(=O)[C@H](CCCCN)NC(=O)[C@H](CC(=O)O)NC(=O)[C@H](CC(=O)O)NC(=O)Cc8ccc(CNC(=O)NCCCC[C@H](NC(=O)N[C@@H](CCC(=O)O)C(=O)O)C(=O)O)cc8)C(=O)N[C@@H](CCCCNC(=O)CC[C@H](NC(=O)c8ccc(NCc9cnc%10[nH]c(N)nc(=O)c%10n9)cc8)C(=O)O)C(N)=O)nn7)C(C)C)cc6)CC5)nn4)cc3OC)nc2N1C1CCCC1 (some centres unmarked) [CR202V4] | −0.12 | 84.13 | 0.04 | 75.9 | 0.11 | 74.3 | 0.17 | 78.2 | 0.30 | 61.3 | 0.42 | 70.4 | 2.62 | 1.36 | 84.7 | 222 | 234 | CR20274 release rate of compounds after cleavage (cathepsin B-human liver; 0 h): 0%; Principal component residue of compounds after cleavage (cathepsin B-human liver; 0 h): 100.00%; CR20274 release rate of compounds after cleavage (cathepsin B-human liver; 1 h): 100%; Principal component residue of compounds after cleavage (cathepsin B-human liver; 1 h): 0.00%; CR20274 release rate of compounds after cleavage (cathepsin B-human liver; 2 h): 100%; Principal component residue of compounds after cleavage (cathepsin B-human liver; 2 h): 0.00%; CR20274 release rate of compounds after cleavage (cathepsin B-human liver; 4 h): 100%; Principal component residue of compounds after cleavage (cathepsin B-human liver; 4 h): 0.00%; CR20274 release rate of compounds after cleavage (cathepsin B-human liver; 24 h): 100%; Principal component residue of compounds after cleavage (cathepsin B-human liver; 24 h): 0.00%; solubility at 2 min (Solubility study in PBS): 8000 µg/mL (≈ 2580 µM)
7 | CC[C@@H]1C(=O)N(C)c2cnc(Nc3ccc(-c4cn([C@H]5CC[C@@H](N(CCOCCC#Cc6cccc7c6CN(C6CCC(=O)NC6=O)C7=O)C(=O)OC(Cc6cn(CCOCCOCCNC(=O)COCCOCCn7cc(C[C@H](NC(=O)[C@H](CCCCN)NC(=O)[C@H](CC(=O)O)NC(=O)[C@H](CC(=O)O)NC(=O)Cc8ccc(CNC(=O)NCCCC[C@H](NC(=O)N[C@@H](CCC(=O)O)C(=O)O)C(=O)O)cc8)C(=O)N[C@@H](CCCCNC(=O)CC[C@H](NC(=O)c8ccc(NCc9cnc%10[nH]c(N)nc(=O)c%10n9)cc8)C(=O)O)C(N)=O)nn7)nn6)c6ccc(OS(=O)(=O)O)c([N+](=O)[O-])c6)CC5)nn4)cc3OC)nc2N1C1CCCC1 (some centres unmarked) [CR202W1] | 0.68 | 105.30 | 0.63 | 89.4 | 0.83 | 103 | 0.80 | 105 | 0.96 | 108 | 0.88 | 84.8 | 2.82 | −2.67 | 43.2 | 112 | 120 | remaining at 1 h, 55.6 µg/mL (sulfatase [2]): 89%; remaining at 2 h, 55.6 µg/mL (sulfatase [2]): 80%; remaining at 4 h, 55.6 µg/mL (sulfatase [2]): 69%; remaining at 24 h, 55.6 µg/mL (sulfatase [2]): 37%; solubility at 2 min (Solubility study in PBS): 8100 µg/mL (≈ 2650 µM); CR20274 release rate of compounds after cleavage (sulfatase [3]; 0 h): 0%; Principal component residue of compounds after cleavage (sulfatase [3]; 0 h): 97%; CR20274 release rate of compounds after cleavage (sulfatase [3]; 1 h): 9%; CR20274 release rate of compounds after cleavage (sulfatase [3]; 2 h): 15%; CR20274 release rate of compounds after cleavage (sulfatase [3]; 4 h): 27%; CR20274 release rate of compounds after cleavage (sulfatase [3]; 24 h): 56%
